Target: T1, I-IIB-YFP (Homo sapiens, UniProt Q00975)
T1 construct: I-IIB residues, 357-482; expressed in transfected cells; host or cells: HEK293
Test: Live-cell FRET two-hybrid assay versus I-IIB-YFP in HEK293 cells
Type: binding
Text: To confirm preferential interaction of NTB with I-IIB a live-cell FRET two-hybrid assay was used (Erickson et al., 2003), in which NTB, NTC, I-IIB, and I-IIC were fused to either CFP or YFP, and the resulting fusion constructs expressed pair-wise in mammalian HEK293 cells. Given a Forster distance of ˜50 Å for the CFP/YFP pair (Patterson et al., 2000), the presence of FRET in individual cells would give a strong indication of interpeptide binding in the mammalian intracellular milieu. This indication is generally characterized by a low false-positive rate (Erickson et al., 2003), so that FRET assays provide a useful complement to yeast two-hybrid assays (Allen et al., 1995). […] SCFP (the signal derived from an image obtained with the CFP filter cube) is selective for CFP fluorescence and thereby gives an optical measure of NTB-CFP expression. Analogously, the SYFP signal, derived from preferential excitation and detection of YFP, estimates I-IIB-YFP levels. Finally, the SFRET signal reflects I-IIB-YFP fluorescence stimulated by FRET transfer from NTB-CFP, as well as secondary cross-talk signals. These three signals can be incorporated within a three-cube FRET algorithm to determine the strength of FRET interaction (“FRET ratio,” FR), independently of cross-talk (Erickson et al., 2001). FR adopts a value of unity in the absence of FRET and grows linearly with increasing FRET efficiency (Erickson et al., 2003). FR values for many individual cells are plotted as circles in FIG. 2Eb, with numerous determinations clearly greater than unity. Alternatively, FR values specified by a YFP-photobleaching methodology were also elevated above unity (triangles) (Bastiaens and Jovin, 1996). […] Consistent with yeast two-hybrid assays, then, FRET assays confirmed a selective propensity for NTB and I-IIB segments to associate.
Human m2 muscarinic acetylcholine receptor (AF498916) was engineered to reduce desensitization (Pals-Rylaarsdam and Hosey, 1997). QuikChange (Stratagene, La Jolla, Calif.) introduced cluster mutations, yielding m2R: residues 286-290 (STSVS/AAAVA), residues 307-311 (TVSTS/AVAAA). For FRET assays, base templates were ECFP/EYFP-tagged calmodulin constructs in pcDNA3 (Invitrogen, Carlsbad, Calif.), as described (Erickson et al., 2001). PCR-amplified channel segments or G proteins were substituted for calmodulin via upstream EcoRI and downstream NheI sites, creating in-frame fusions with fluorophore (ECFP/EYFP C-terminal to test molecules). NTC residues, 1-53; I-IIB residues, 357-482; and I-IIC residues, 436-554.
Experiments were performed mostly as previously described (Erickson et al., 2001; Erickson et al., 2003). Briefly, the FRET Ratio (FR) is the fractional increase in YFP emission due to FRET. […] For donor-dequenching analysis, EEFF is calculated as EEFF=^1−CFPpre/CFPpost, where CFPpre and CFPpost are the CFP emissions before/after 3 min YFP photobleaching. FR is determined by FR=(EEFF/[EYFP/ECFP])+1, where EYFP/ECFP is ratio of YFP and CFP molar extinction coefficients through 440 nm excitation bandpass of FRET cube (0.0574). For binding model analysis, Kd,EFF is the effective dissociation constant, related to actual Kd via filter/microscope optical characteristics. […]
Experiments were performed as described previously for the most part (Erickson et al., 2001; Erickson et al., 2003). Specifically, for quantitative analysis, all fluorescence from single cells were isolated through a pinhole in the image plane, and detected by photo-multiplier tube. In all three-cube FRET experiments, CFP levels were below a threshold where spurious, concentration-dependent FRET became significant (Stratton et al., 2004). Similarly, for donor-dequenching experiments, YFP levels were below an analogous threshold. […]

T1 sequence (Q00975 357-482): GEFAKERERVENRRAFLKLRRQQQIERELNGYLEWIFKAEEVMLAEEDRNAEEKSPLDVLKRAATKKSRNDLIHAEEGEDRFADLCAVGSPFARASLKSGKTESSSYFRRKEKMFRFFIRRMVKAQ

Kd,EFF relative to NTB/I-IIB (NTC-CFP versus I-IIB-YFP, lower-limit estimate): ≥ 8 fold
Kd,EFF / affinity for I-IIB (FRET), in words (relative dissociation constant, HEK293 cells): larger by an order of magnitude or more
Substance: NTC: NH3 terminus of L-type channel α1C subunit, free peptide [reference compound]
